For this data set, the system named is C57BL/6J mice. Conditions: mouse, in vivo.

Consider 1 molecule from article PMC10918641 (Biomaterials, 2023).

B1: OVA-PEG: OVA conjugated to PEG via urethane linkage (conjugate, UniProt P01012 2-386, looked up)
Ovalbumin: GSIGAASMEFCFDVFKELKVHHANENIFYCPIAIMSALAMVYLGAKDSTRTQINKVVRFDKLPGFGDSIEAQCGTSVNVHSSLRDILNQITKPNDVYSFSLASRLYAEERYPILPEYLQCVKELYRGGLEPINFQTAADQARELINSWVESQTNGIIRNVLQPSSVDSQTAMVLVNAIVFKGLWEKAFKDEDTQAMPFRVTEQESKPVQMMYQIGLFRVASMASEKMKILELPFASGTMSMLVLLPDEVSGLEQLESIINFEKLTEWTSSNVMEERKIKVYLPRMKMEEKYNLTSVLMAMGITDVFSSSANLSGISSAESLKISQAVHAAHAEINEAGREVVGSAEAGVDAASVSEEFRADHPFLFCIKHIATNAVLFFGRCVSP
modifications: PEG 10K conjugate
Regarding B1, the “PEG-specific IgM titer relative to Ex-PEG” value is ~ 60 fold; the “anti-OVA IgG titer” value was “lower titers of anti-OVA IgG than unmodified OVA”; the “magnification of anti-OVA and anti-PEG responses by CFA/IFA emulsions” value is given as ~ 2 fold.
